We go through 61 molecules from patent US20180222961A1 (IMMATICS BIOTECHNOLOGIES, published 2018).

B1: FPFVTGSTEM (peptide)
peptide: FPFVTGSTEM
B2: HVTKTQATF (peptide)
peptide: HVTKTQATF
B3: VPSEIDAAF (peptide)
peptide: VPSEIDAAF
B4: LPWDTSTTLF (peptide)
peptide: LPWDTSTTLF
B5: LPLDTSTTL (peptide)
peptide: LPLDTSTTL
B6: HPKTESATPAAY (peptide)
peptide: HPKTESATPAAY
B7: TAKTPDATF (peptide)
peptide: TAKTPDATF
B8: NPSSTTTEF (peptide)
peptide: NPSSTTTEF
B9: SPSTIKLTM (peptide)
peptide: SPSTIKLTM
B10: FPHSEMTTL (peptide)
peptide: FPHSEMTTL
B11: FPHSEMTTV (peptide)
peptide: FPHSEMTTV
B12: MPSLSEAMTSF (peptide)
peptide: MPSLSEAMTSF
B13: FPHSEMTTVM (peptide)
peptide: FPHSEMTTVM
B14: PGGTRQSL (peptide)
peptide: PGGTRQSL
B15: TPLATTQRF (peptide)
peptide: TPLATTQRF
B16: EPVTSSLPNF (peptide)
peptide: EPVTSSLPNF
B17: KVKSDRSVF (peptide)
peptide: KVKSDRSVF
B18: SPAEPSVYATL (peptide)
peptide: SPAEPSVYATL
B19: VPDQPHPEI (peptide)
peptide: VPDQPHPEI
B20: SPSVSSNTY (peptide)
peptide: SPSVSSNTY
B21: SPRENFPDTL (peptide)
peptide: SPRENFPDTL
B22: FPFQPGSV (peptide)
peptide: FPFQPGSV
B23: GPRNAQRVL (peptide)
peptide: GPRNAQRVL
B24: MPLTTGSQGM (peptide)
peptide: MPLTTGSQGM
B25: VPTPVFPTM (peptide)
peptide: VPTPVFPTM
B26: NPIGDTGVKF (peptide)
peptide: NPIGDTGVKF
B27: MPNSAIPFSM (peptide)
peptide: MPNSAIPFSM
B28: LYVDGFTHW (peptide)
peptide: LYVDGFTHW
B29: LPAGTTGSLVF (peptide)
peptide: LPAGTTGSLVF
B30: SPAETSTNM (peptide)
peptide: SPAETSTNM
B31: TPSVVTEGF (peptide)
peptide: TPSVVTEGF
B32: VPYRVVGL (peptide)
peptide: VPYRVVGL
B33: SPLVTSHIM (peptide)
peptide: SPLVTSHIM
B34: FPYSEVTTL (peptide)
peptide: FPYSEVTTL
B35: HPVETSSAL (peptide)
peptide: HPVETSSAL
B36: LPEISTRTM (peptide)
peptide: LPEISTRTM
B37: SPSPVPTTL (peptide)
peptide: SPSPVPTTL
B38: RPMPNLRSV (peptide)
peptide: RPMPNLRSV
B39: FPHPEMTTSM (peptide)
peptide: FPHPEMTTSM
B40: SPTHVTQSL (peptide)
peptide: SPTHVTQSL
B41: FPAMTESGGMIL (peptide)
peptide: FPAMTESGGMIL
B42: NVLTSTPAF (peptide)
peptide: NVLTSTPAF
B43: EPKTATVL (peptide)
peptide: EPKTATVL
B44: FPMSPVTSV (peptide)
peptide: FPMSPVTSV
B45: LPSVSGVKTTF (peptide)
peptide: LPSVSGVKTTF
B46: SPDPSKHLL (peptide)
peptide: SPDPSKHLL
B47: HPDPVGPGL (peptide)
peptide: HPDPVGPGL
B48: SPMDTFLLI (peptide)
peptide: SPMDTFLLI
B49: LPTQTTSSL (peptide)
peptide: LPTQTTSSL
B50: TPLATTQRFTY (peptide)
peptide: TPLATTQRFTY
B51: SPNEFYFTV (peptide)
peptide: SPNEFYFTV
B52: IPRNPPPTLL (peptide)
peptide: IPRNPPPTLL
B53: LPTSESLVSF (peptide)
peptide: LPTSESLVSF
B54: SPVPVTSLF (peptide)
peptide: SPVPVTSLF
B55: SPLPVTSLI (peptide)
peptide: SPLPVTSLI
B56: SPLPVTSLL (peptide)
peptide: SPLPVTSLL
B57: SPAMTTPSL (peptide)
peptide: SPAMTTPSL
B58: LPLGTSMTF (peptide)
peptide: LPLGTSMTF
B59: RPRALRDLRIL (peptide)
peptide: RPRALRDLRIL
B60: LPYFREFSM (peptide)
peptide: LPYFREFSM
B61: FPNRLNLEA (peptide)
peptide: FPNRLNLEA

The target of the experiment is T1, HLA-B*07:02 (human).
T1 construct: also called peptide-receptive MHC molecules
The experiment in a line: UV-exchange b2m ELISA; exchange-yield grade. The source says:
Candidate peptides for T cell based therapies according to the present invention were further tested for their MHC binding capacity (affinity). The individual peptide-MHC complexes were produced by UV-ligand exchange, where a UV-sensitive peptide is cleaved upon UV-irradiation, and exchanged with the peptide of interest as analyzed. Only peptide candidates that can effectively bind and stabilize the peptide-receptive MHC molecules prevent dissociation of the MHC complexes. To determine the yield of the exchange reaction, an ELISA was performed based on the detection of the light chain (β2m) of stabilized MHC complexes. The assay was performed as generally described in Rodenko et al. (Rodenko et al., 2006).
96 well MAXISorp plates (NUNC) were coated over night with 2 ug/ml streptavidin in PBS at room temperature, washed 4× and blocked for 1 h at 37° C. in 2% BSA containing blocking buffer. Refolded HLA-A*02:01/MLA-001 monomers served as standards, covering the range of 15-500 ng/ml. Peptide-MHC monomers of the UV-exchange reaction were diluted 100-fold in blocking buffer. Samples were incubated for 1 h at 37° C., washed four times, incubated with 2 ug/ml HRP conjugated anti-β2m for 1 h at 37° C., washed again and detected with TMB solution that is stopped with […]. Absorption was measured at 450 nm. Candidate peptides that show a high exchange yield (preferably higher than 50%, most preferred higher than 75%) are generally preferred for a generation and production of antibodies or fragments thereof, and/or T cell receptors or fragments thereof, as they show sufficient avidity to the MHC molecules and prevent dissociation of the MHC complexes.
With B1, the peptide exchange yield was in the range of 20 to 50%.

B2 returned a peptide exchange yield of 20 to 50%.

Molecule B3 returned a peptide exchange yield of 20 to 50%. Turning to B4, the peptide exchange yield was in the range of 50 to 75%. The value for B5 was 50 to 75%; that for B6 was 20 to 50%; that for B7 was 20 to 50%. The value for B8 was 50 to 75%.

On to B9, for which the peptide exchange yield was 50 to 75%. The value for B10 was 50 to 75%; that for B11 was 50 to 75%; that for B12 was 50 to 75%. The result for B13 reads 50 to 75%; that for B14, 10 to 20%. The result for B15 reads 20 to 50%. Turning to B16, the peptide exchange yield is 20 to 50%. Turning to B17, the peptide exchange yield lay in the range of 10 to 20%.

Turning to B18, the peptide exchange yield was > 75%.

Consider B19, for which the peptide exchange yield lay within 50 to 75%. The value for B20 was 20 to 50%; that for B21 was 50 to 75%. The value for B22 was 50 to 75%; that for B23 was 50 to 75%; that for B24 was 20 to 50%. As to B25, the peptide exchange yield lay within 20 to 50%. Molecule B26 yielded a peptide exchange yield of 50 to 75%. Turning to B27, the peptide exchange yield lay in the range of 50 to 75%.

Turning to B28, the peptide exchange yield fell in the range of 20 to 50%. B29: the peptide exchange yield was 50 to 75%. The value for B30 was 50 to 75%; that for B31 was 20 to 50%; that for B32 was 20 to 50%. Molecule B33 registered a peptide exchange yield of 50 to 75%. With B34, the peptide exchange yield was 50 to 75%.

As to B35, the peptide exchange yield was 50 to 75%. The result for B36 reads 20 to 50%; that for B37, 50 to 75%; that for B38, 50 to 75%. In the case of B39, the peptide exchange yield was 50 to 75%.

B40 registered a peptide exchange yield of 50 to 75%. For the molecule B41, the peptide exchange yield lay in the range of 50 to 75%. The molecule B42 yielded a peptide exchange yield of 20 to 50%. Turning to B43, the peptide exchange yield is 20 to 50%. As to B44, the peptide exchange yield lay within 50 to 75%. B45 came in with a peptide exchange yield of 20 to 50%. In turn, B46 yielded a peptide exchange yield of 20 to 50%. The value for B47 was 20 to 50%; that for B48 was 20 to 50%; that for B49 was 50 to 75%. The molecule B50 returned a peptide exchange yield of 20 to 50%. Consider B51, for which the peptide exchange yield is 50 to 75%. As to B52, the peptide exchange yield fell in the range of 50 to 75%. As to B53, the peptide exchange yield fell in the range of 20 to 50%. The result for B54 reads 50 to 75%. The result for B55 reads 50 to 75%; that for B56, 50 to 75%; that for B57, 50 to 75%. Consider B58, for which the peptide exchange yield was 50 to 75%. The molecule B59 gave a peptide exchange yield of 50 to 75%. With B60, the peptide exchange yield is 50 to 75%.

B61: the peptide exchange yield was in the range of 50 to 75%.
